Test results as given in the supplement of paper PMC7125110.
± gives the standard error. Fewer inactive variants are shown than the library holds.

B1: glmS ribozyme (parent)
chain: AUAAAAGCGCCAGAACUACAGAAAUGUAGUUGACGAGGAGGAGGUUUAUCGAAUUUUCGGCGGAUGCCUCCAAA

What was measured:
Conditions in all cases: with glucosamine-6-phosphate
[1] = variants of: B1; assay: self-cleavage kobs at 40 uM GlcN6P; higher = faster cleavage; RNA array
Outline: (§1)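 Tracking of barcoded ribozyme variants used a hybridised Cy3 probe at 37 °C, after in situ transcription by E. coli RNA polymerase on sequenced MiSeq chips. The flowed solution held 40 μM to 10 mM glucosamine-6-phosphate in HEPES/KCl/Mg(OAc)2 buffer, and imaging ran over ~14 h. kobs was taken from exponential decay fits of normalised per-tile medians, and kcat and KM from weighted Michaelis–Menten fits.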

[2] = variants of: B1; assay: self-cleavage kobs at 160 uM GlcN6P; higher = faster cleavage; RNA array
Outline: as §1

[3] = variants of: B1; assay: self-cleavage kobs at 640 uM GlcN6P; higher = faster cleavage; RNA array
Outline: as §1

[4] = variants of: B1; assay: self-cleavage kobs at 2500 uM GlcN6P; higher = faster cleavage; RNA array
Outline: as §1

[5] = variants of: B1; assay: self-cleavage kobs at 10000 uM GlcN6P; higher = faster cleavage; RNA array
Outline: as §1

| Variant | self-cleavage kobs at 40 uM GlcN6P [1] | self-cleavage kobs at 160 uM GlcN6P [2] | self-cleavage kobs at 640 uM GlcN6P [3] | self-cleavage kobs at 2500 uM GlcN6P [4] | self-cleavage kobs at 10000 uM GlcN6P [5] |
| --- | --- | --- | --- | --- | --- |
| AUAAAAGUGCCAGAACUACAGAAAUGUAGUUGACGAGGAGGAGGUUUAUCGAAUUUUCUGCGGAUGCCUCCAAA [C8U G59U] | < 1e-05 s⁻¹ | < 1e-05 s⁻¹ | < 1e-05 s⁻¹ | < 1e-05 s⁻¹ | < 1e-05 s⁻¹ |
| AUAAAAGCGCCAGAACUACAGAAAUGUAGUUGACGAGGAGGAGGUUUUUCGAAUUAUAGGCGGAUGCCUCCAAA [A48U U56A C58A] | < 1e-05 s⁻¹ | – | – | – | – |
| AUAAAAGCGCCUGAACUACAGAAAUGUAGUCGACGAGGAGAAGGUUUAUCGAAUUUUCGUCGGAUGCCUCCAAA [A12U U31C G41A G60U] | < 1e-05 s⁻¹ | – | – | – | – |
| AUAAAAGCGCCAGAACUACAGAAAUGUAGUUGACGAGGAGGAGGAUUAUCGAAUUUUCGACGGAUGCCUCCAAA [U45A G60A] | < 1e-05 s⁻¹ | < 1e-05 s⁻¹ | – | – | – |
| AUAAAAGCGCCAGUACUACAGAAAUGUAGUUGACGAGGAGGAGGUUUAUCGAAUUUUCGGCGGAUGCCUUCAAA [A14U C70U] | 0.000285 ± 2.5e-05 s⁻¹ | 0.000441 ± 6.1e-05 s⁻¹ | 0.00104 ± 0.00018 s⁻¹ | 0.00724 ± 0.0015 s⁻¹ | – |
| AUAAAAGCGCCAGAACUACAGAAAUGUAGUUGACGAGGAAGAGGUUUAUCGAAUUUUCGGCGGAUGCCUCGAAA [G40A C71G] | 0.000326 ± 5.2e-05 s⁻¹ | 0.00034 ± 0.00014 s⁻¹ | 0.00161 ± 0.00038 s⁻¹ | 0.00373 ± 0.0013 s⁻¹ | 0.00695 ± 0.0013 s⁻¹ |
| AUAAAUGCGCCAGAAAUACAGAAAUGUAGUUGAAGAGCAGGAGGUUUAUCGAAUUUUCGGCGGAUGCCUCCAAA [A6U C16A C34A G38C] | < 1e-05 s⁻¹ | – | < 1e-05 s⁻¹ | – | < 1e-05 s⁻¹ |
| AUAAAACCGCCAGAACUACAGAAAUGUAGAUGACGAGGAGGAGGUUUAUCGAAUUUUCGGCGGAUGCCUCCAAA [G7C U30A] | < 1e-05 s⁻¹ | < 1e-05 s⁻¹ | < 1e-05 s⁻¹ | < 1e-05 s⁻¹ | < 1e-05 s⁻¹ |
| AUAAAAGCGCCAGAACUACAGAAAUGUAGUUGACGAGGAGGAGGUUUAUCGAAUUUUCGACUGAUGCCUCCAAA [G60A G62U] | < 1e-05 s⁻¹ | < 1e-05 s⁻¹ | < 1e-05 s⁻¹ | < 1e-05 s⁻¹ | – |
| AUAAAAGCGCCAGAACUACAGAAAUGUAGUUGACGCGGAGGAGGUUUCUCGAAUUAUCGGCGGAUGCCUCCAAA [A36C A48C U56A] | < 1e-05 s⁻¹ | – | – | – | – |
| AUAAAAGCGCCCGAACUACAGAAAUUUAGUUGACGAGGAGGAGGUUUAUCGAAUUUUCGGCGGAUGCCUCCAAA [A12C G26U] | 0.000614 ± 0.00014 s⁻¹ | – | 0.00546 ± 0.0013 s⁻¹ | 0.00321 ± 0.00099 s⁻¹ | 0.0113 ± 0.0032 s⁻¹ |
| AUAAACGCGCCGGAACUACAGAAAUGUAGUUGACGAGGAGGAGGUUUAUCGAAUUUUCGGCGGAUGCCUCCAAA [A6C A12G] | < 1e-05 s⁻¹ | < 1e-05 s⁻¹ | < 1e-05 s⁻¹ | – | – |
